# Several values for one entry are separate records, joined by “and”; a condition that tells them apart may be missing. Equal values may be shown once.
# Target: Escherichia coli β subunit of DNA Polymerase III (β protein) (Escherichia coli), P0A988
# Sequence (P0A988 whole entry): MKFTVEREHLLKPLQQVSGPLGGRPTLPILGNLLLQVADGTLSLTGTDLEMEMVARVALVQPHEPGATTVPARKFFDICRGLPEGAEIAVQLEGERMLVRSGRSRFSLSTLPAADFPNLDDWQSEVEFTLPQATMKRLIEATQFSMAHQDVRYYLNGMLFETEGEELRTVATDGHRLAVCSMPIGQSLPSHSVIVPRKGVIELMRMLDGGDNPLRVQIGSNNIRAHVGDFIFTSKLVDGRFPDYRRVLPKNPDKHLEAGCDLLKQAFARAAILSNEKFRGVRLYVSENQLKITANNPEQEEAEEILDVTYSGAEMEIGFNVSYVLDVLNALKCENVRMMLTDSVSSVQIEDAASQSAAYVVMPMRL
binder,measurement,value
"EAQLDLFDS (modifications not checked) [peptide 112d … (UmuC1, native flanking sequences)]",IC50,1000 nM and 3600 nM
